B1: LRP6: B3GnT2−/− (protein)
parent chain: MGAVLRSLLACSFCVLLRAAPLLLYANRRDLRLVDATNGKENATIVVGGLEDAAAVDFVFSHGLIYWSDVSEEAIKRTEFNKTESVQNVVVSGLLSPDGLACDWLGEKLYWTDSETNRIEVSNLDGSLRKVLFWQELDQPRAIALDPSSGFMYWTDWGEVPKIERAGMDGSSRFIIINSEIYWPNGLTLDYEEQKLYWADAKLNFIHKSNLDGTNRQAVVKGSLPHPFALTLFEDILYWTDWSTHSILACNKYTGEGLREIHSDIFSPMDIHAFSQQRQPNATNPCGIDNGGCSHLCLMSPVKPFYQCACPTGVKLLENGKTCKDGATELLLLARRTDLRRISLDTPDFTDIVLQLEDIRHAIAIDYDPVEGYIYWTDDEVRAIRRSFIDGSGSQFVVTAQIAHPDGIAVDWVARNLYWTDTGTDRIEVTRLNGTMRKILISEDLEEPRAIVLDPMVGYMYWTDWGEIPKIERAALDGSDRVVLVNTSLGWPNGLALDYDEGKIYWGDAKTDKIEVMNTDGTGRRVLVEDKIPHIFGFTLLGDYVYWTDWQRRSIERVHKRSAEREVIIDQLPDLMGLKATNVHRVIGSNPCAEENGGCSHLCLYRPQGLRCACPIGFELISDMKTCIVPEAFLLFSRRADIRRISLETNNNNVAIPLTGVKEASALDFDVTDNRIYWTDISLKTISRAFMNGSALEHVVEFGLDYPEGMAVDWLGKNLYWADTGTNRIEVSKLDGQHRQVLVWKDLDSPRALALDPAEGFMYWTEWGGKPKIDRAAMDGSERTTLVPNVGRANGLTIDYAKRRLYWTDLDTNLIESSNMLGLNREVIADDLPHPFGLTQYQDYIYWTDWSRRSIERANKTSGQNRTIIQGHLDYVMDILVFHSSRQSGWNECASSNGHCSHLCLAVPVGGFVCGCPAHYSLNADNRTCSAPTTFLLFSQKSAINRMVIDEQQSPDIILPIHSLRNVRAIDYDPLDKQLYWIDSRQNMIRKAQEDGSQGFTVVVSSVPSQNLEIQPYDLSIDIYSRYIYWTCEATNVINVTRLDGRSVGVVLKGEQDRPRAVVVNPEKGYMYFTNLQERSPKIERAALDGTEREVLFFSGLSKPIALALDSRLGKLFWADSDLRRIESSDLSGANRIVLEDSNILQPVGLTVFENWLYWIDKQQQMIEKIDMTGREGRTKVQARIAQLSDIHAVKELNLQEYRQHPCAQDNGGCSHICLVKGDGTTRCSCPMHLVLLQDELSCGEPPTCSPQQFTCFTGEIDCIPVAWRCDGFTECEDHSDELNCPVCSESQFQCASGQCIDGALRCNGDANCQDKSDEKNCEVLCLIDQFRCANGQCIGKHKKCDHNVDCSDKSDELDCYPTEEPAPQATNTVGSVIGVIVTIFVSGTVYFICQRMLCPRMKGDGETMTNDYVVHGPASVPLGYVPHPSSLSGSLPGMSRGKSMISSLSIMGGSSGPPYDRAHVTGASSSSSSSTKGTYFPAILNPPPSPATERSHYTMEFGYSSNSPSTHRSYSYRPYSYRHFAPPTTPCSTDVCDSDYAPSRRMTSVATAKGYTSDLNYDSEPVPPPPTPRSQYLSAEENYESCPPSPYTERSYSHHLYPPPPSPCTDSS
B2: LRP6: hB3GnT2 co-expression (protein)
parent chain: B1 parent chain
B3: LRP6: N433Q (protein)
parent chain: B1 parent chain
B4: LRP6: N486Q (protein)
parent chain: B1 parent chain
B5: LRP6: N859Q (protein)
parent chain: B1 parent chain
B6: LRP6: N281Q (protein)
parent chain: B1 parent chain
B7: LRP6: N926Q (protein)
parent chain: B1 parent chain
B8: LRP6: N865Q (protein)
parent chain: B1 parent chain

Columns and labels:
[1] = Western blot of overexpressed LRP6; conditions: glycan changed form; control: wild-type HEK293T cells
[2] = cell-surface HiBiT/LgBiT luminescence to mCherry ratio; conditions: glycan changed form; control: HiBiT-LRP6-mCherry alone
[3] = Western blot, mature upper band, B3GnT2-/- HEK293T; conditions: glycan lost; control: wild-type LRP6

| Protein | localisation_or_trafficking [3] | other results |
| --- | --- | --- |
| B1 | – | expression_or_secretion [1]: increases |
| B2 | – | localisation_or_trafficking, fold_change [2]: increases |
| B3 | no change | – |
| B4 | no change | – |
| B5 | no change | – |
| B6 | no change | – |
| B7 | no change | – |
| B8 | no change | – |
